Results reported in patent US5834597.
Values belong to the molecule of their own block, whether it stands above or below them.

How the values were obtained:
[1] = molecular target: human CD3 antigen on T cells (human); test: flow cytometry competition on human T cells, FITC-conjugated murine OKT3 as tracer
[2] = molecular target: human CD3 antigen on T cells (human); test: competition with 125I-labelled mouse M291 on IL-2-activated human T cells, method of Berzofsky and Berkower

- specific lysis of 51Cr-labeled K562 cells by retargeted T cell blasts (reverse lysis) (FcRII): < 32%
- avidity, fold compared to that of the chimeric IgG1 [1]: 2 to 3 fold
Molecule: chimeric OKT3 IgG2 (from UniProt P01859-1) (antibody)

- Ka [2]: 1.6e+09 M⁻¹
Molecule: humanized M291 IgG1 (from UniProt P01857-1) (antibody)

- Ka [2]: 1.6e+09 M⁻¹
B1: mouse M291 antibody (antibody, V domains shown)
VH: QVQLQQSGAELARPGASVKMSCKASGYTFISYTMHWVKQRPGQGLEWIGYINPRSGYTHYNQKLKDKATLTADKSSSSAYMQLSSLTSEDSAVYYCARSAYYDYDGFAYWGQGTLVTVSA
VL: QIVLTQSPAIMSASPGEKVTMTCSASSSVSYMNWYKQKSGTSPKRWTYDTSKLASGVPARFSGSGSGTSYSLTISSMEAEDAATYYCQQWSSNPPTFGSGTKLEIK
